Paper PMC6051995

Biological target: vinculin (UniProt P18206)
Test: FLAG IP, LC-MS/MS spectral counting
Conditions: reference: FLAG-EZH2 wild type; sites T367

## EZH2 (from UniProt Q15910) FLAG-EZH2 T367A
  binding against the reference: weaker
